Laboratory results taken from patent US20240228542A1, “LYTIC DOMAIN FUSION CONSTRUCTS, CHECKPOINT INHIBITORS, AND METHODS OF MAKING AND USING SAME” (A28 Therapeutics Inc., priority 2020, published 2024).

Tests used:
MDA-MB-435S cells = conditions: reported; cited from earlier work
[1] = molecular target: chorionic gonadotrophin (CG) receptor, on MDA-MB-435S.luc cells (human) (UniProt P22888); experiment: cell-based or functional assay
AN3-CA = experiment: Cytotoxicity in AN3-CA endometrial cancer cells; type: cell-based; conditions: AN3-CA endometrial cancer cell line; read-out: IC50 in Human Cancer Cell Lines
Experimental: (§1) MDA-MB-435S.luc cells were grown in Leibovitz's L 15 medium, 10% fetal bovine serum, 0.01 mg/ml bovine insulin, 100 IU/ml penicillin, 100 microg/ml streptomycin. The cells were cultured in tight closed flasks. The incubations were conducted using 96 well plates at 10,000 cells per well. Cells were typically seeded into 96 well plates and media was replaced after 48 hours of incubation. Each assay was conducted at increasing concentrations of 0, 0.001, 0.01, 0.05, 0.1, 0.5, 1, 2, 5, 10 and 100 micromolar doses of lytic peptide-binding domain conjugate. Each lytic peptide-binding domain conjugate provided in lyophilized form and was freshly dissolved in saline and added to cells. The duration of incubation was typically 24 h, and cell viability assays were conducted using formazan conversion assays (MTT assay). Controls contained saline or 0.1% triton as reference for 0 and 100% cell death, respectively.
(§2) To ascertain the IC50 of various fusion constructs on different human cancer cell lines compared to cisplatinum, IC50 of fusion constructs were evaluated as in Table 3.

OVCAR-3 = experiment: Cytotoxicity in OVCAR-3 ovarian cancer cells; type: cell-based; conditions: OVCAR-3 ovarian cancer cell line; read-out: IC50 in Human Cancer Cell Lines
Experimental: as §1, §2

SKOV-3 = experiment: Cytotoxicity in SKOV-3 ovarian cancer cells; type: cell-based; conditions: SKOV-3 ovarian cancer cell line; read-out: IC50 in Human Cancer Cell Lines
Experimental: as §1, §2

LNCaP = experiment: Cytotoxicity in LNCaP prostate cancer cells; type: cell-based; conditions: LNCaP prostate cancer cell line; read-out: IC50 in Human Cancer Cell Lines
Experimental: as §1, §2

OVCAR-3 xenograft = experiment: OVCAR-3 ovarian cancer xenograft; type: in vivo, Nu/Nu mice; conditions: for tumor volume: OVCAR-3 xenograft, CLIP71 2 mg/kg, cisplatinum 10 mg/kg
Experimental: In brief, Nu/Nu female mice, inbred strain, age 5 weeks (Harlan-Sprague Dawley) were injected subcutaneously with a NIH:OVCAR-3 cells/Matrigel suspension (4.6×10^6 cells/mouse). Treatment was started on day 33 after tumor cell injection when the tumors were established and continued on days 41 and 47. The doses for the 3 weekly injections were 0.02, 0.2 and 2 mg/kg body weight, given as a single bolus intravenous injection via lateral tail vein administered once a week for three weeks on days 33, 41 and 47. Necropsies were conducted on day 52. Data are presented as mean […]SEM. Arrows show dosing.
A group of 9 tumor bearing mice was sacrificed on day 33 and served as baseline group. All mice were necropsied 51-52 days after tumor cell injection. Tumor volumes and bodyweights were recorded twice weekly during the study, as well as overall veterinarian examination of mice was conducted.
Primary tumors, liver, kidney, pancreas, heart, lung, and spleen were collected, fixed in formalin and prepared for histological evaluation. Tumor weights were measured at necropsy, part of the tumors were frozen at −80° C. for LH/CG and LHRH receptor assay determination.
As a biomarker for drug activity, CA 125 was determined in serum, collected from each individual mouse at necropsy using a Enzyme Linked Immunoassay for quantitative determination of ovarian cancer antigen CA125 (Assay kit Genway, Biotech, Inc. San Diego, CA, Catalog #40-052-115009, #BC-1013 according to the manufacturer).
LHRH receptor levels were assessed from formalin fixed tumors. Quantitative immunoperoxidase image analysis was conducted with the Ventana Image Analysis System (VIAS) adjunctive computer assisted image analysis system functionally connected to an interactive microscope (Axio Imager). The quantitative analysis was conducted with the program for quantification of Her2/neu receptor that included morphometric and colorimetric analysis. Receptor status results were reported as percentage of cells showing positive staining of the LHRH receptors under the following criteria: 0 non-immunoreactive, 1+: 1-25% positive, 2+: 26-50% positive, 3+: 51-75% positive cells.

[2] = molecular target: T1, luteinizing hormone-releasing hormone (LHRH) receptor, on human cancer cell lines (human) (UniProt P30968); experiment: cell-based or functional assay
T1 sequence (looked up): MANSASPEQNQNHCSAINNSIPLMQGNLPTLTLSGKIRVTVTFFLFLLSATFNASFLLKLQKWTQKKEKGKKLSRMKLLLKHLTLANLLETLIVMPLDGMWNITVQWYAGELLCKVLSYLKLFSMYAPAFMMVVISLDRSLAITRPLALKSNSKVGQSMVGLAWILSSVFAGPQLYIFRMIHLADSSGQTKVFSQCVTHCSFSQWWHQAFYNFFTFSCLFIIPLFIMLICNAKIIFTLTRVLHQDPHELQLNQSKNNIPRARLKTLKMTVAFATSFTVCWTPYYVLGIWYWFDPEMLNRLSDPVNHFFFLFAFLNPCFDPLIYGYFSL

[3] = molecular target: T2, luteinizing hormone-releasing hormone receptor (LHRH-R), on murine cancer cell lines (mouse) (UniProt Q01776); experiment: cell-based or functional assay
T2 sequence (looked up): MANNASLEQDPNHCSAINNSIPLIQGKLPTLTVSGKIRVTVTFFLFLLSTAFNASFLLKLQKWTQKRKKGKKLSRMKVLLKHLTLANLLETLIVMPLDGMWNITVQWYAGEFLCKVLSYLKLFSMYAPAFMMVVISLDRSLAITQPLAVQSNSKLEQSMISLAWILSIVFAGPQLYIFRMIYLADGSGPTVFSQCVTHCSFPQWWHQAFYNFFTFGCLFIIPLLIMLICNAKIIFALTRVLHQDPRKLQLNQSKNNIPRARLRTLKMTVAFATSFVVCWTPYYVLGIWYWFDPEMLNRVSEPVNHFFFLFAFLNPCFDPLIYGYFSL

COc1cccc2c1C(=O)c1c(O)c3c(c(O)c1C2=O)C[C@@](O)(C(=O)CO)C[C@@H]3O[C@H]1C[C@H](N)[C@H](O)[C@H](C)O1 [doxorubicin]
time to destroy human melanoma cells in vitro (MDA-MB-435S cells): 4 h

Phor21-βCG-ala (323033) (peptide)
IC50 of cytotoxicity, MDA-MB-435S.luc cells (carry CG receptors) [1]: 2300 nM

N.N.[Cl][Pt][Cl] [Cisplatinum, reference compound]
IC50 (AN3-CA): 11800 ± 160 nM
IC50 (OVCAR-3): 184000 nM
IC50 (SKOV-3): 321000 ± 10000 nM
IC50 (LNCaP): 19900 ± 1400 nM
tumor weights (OVCAR-3 xenograft; OVCAR-3 xenograft at necropsy): not effective in reducing tumor weights
tumor volume (OVCAR-3 xenograft): no reduction in tumor volume
tumor volume (OVCAR-3 xenograft; listed as cisplatinum): tumor growth was observed

Phor18-LHRH (338613) (peptide)
IC50 of cytotoxicity (MTT), MDA-MB-435S cells, 0.5 hour [2]: 1200 nM
IC50 of cytotoxicity (MTT), MDA-MB-435S cells, 1 hour [2]: 600 nM
IC50 of cytotoxicity (MTT), OVCAR-3 cells, increasing incubation time, value 1 of 7 [2]: 6700 nM
IC50 of cytotoxicity (MTT), OVCAR-3 cells, increasing incubation time, value 2 of 7 [2]: 5600 nM
IC50 of cytotoxicity (MTT), OVCAR-3 cells, increasing incubation time, value 3 of 7 [2]: 5300 nM
IC50 of cytotoxicity (MTT), OVCAR-3 cells, increasing incubation time, value 4 of 7 [2]: 1600 nM
IC50 of cytotoxicity (MTT), OVCAR-3 cells, increasing incubation time, value 5 of 7 [2]: 1500 nM
IC50 of cytotoxicity (MTT), OVCAR-3 cells, increasing incubation time, value 6 of 7 [2]: 500 nM
IC50 of cytotoxicity (MTT), OVCAR-3 cells, increasing incubation time, value 7 of 7 [2]: 500 nM
IC50 of cell viability, murine ovarian cancer cell lines, 72 hours [3]: 1000 to 1300 nM
IC50 of cytotoxicity (CellTiter Glo), EMT-6 cells, 4 h [3]: 5800 nM
IC50 of cytotoxicity (CellTiter Glo), EMT-6 cells, 8 h [3]: 5700 nM
IC50 of cytotoxicity (CellTiter-Glo), 2C12 cells, 24 h [3]: 1020 nM
IC50 of cytotoxicity (CellTiter-Glo), ID8 cells, 24 h [3]: 1370 nM
IC50 of cytotoxicity (CellTiter-Glo), IF5 cells, 24 h [3]: 1010 nM
IC50 of cytotoxicity (CellTiter-Glo), IG10 cells, 24 h [3]: 1030 nM
IC50 of cytotoxicity (CellTiter-Glo), cell line printed as 242, 24 h [3]: 1380 nM
